{
  "source": "patent US9872831B2",
  "about": "(ALFASIGMA S.P.A., priority 2011, dated 2018)",
  "key": {"[1]": {"test": "Linkage of instilled oxidized avidin to surgically lesioned bladder, PET with i.v. 68-Ga-ST2210", "assay_type": "in vivo, pig", "details": "1 h instillation, PET 4 h after 68-Ga-ST2210 i.v.", "description": "Anesthetised female pig of about 40 kg was subjected to surgery to generate two 2 cm superficial lesions on the bladder wall. […] Bladder was then washed with saline and 0.5 μg 68-Ga-ST2210 was i.v. administered. After 4 hours the pig was subjected to PET."}, "[2]": {"test": "Chemical integrity of oxidized avidin after nebulisation (HPLC)", "assay_type": "physicochemical", "details": "3.0 mg/ml in 100 mM sodium acetate pH 5.5, nebulised 1 hour at room temperature", "excerpt": "The particle size of the protein solution midst was 5 μm. The nebulised solution was recovered in a falcon tube and analyzed by HPLC."}, "[3]": {"test": "Biodistribution of i.v. 111In-ST2210 after nebulised oxidized avidin", "assay_type": "in vivo, Balb/c mice", "details": "nebulised 1 hour (about 90 mg/kg); 111In-ST2210 i.v. 24 h later; sacrifice after 2 or 24 hours", "description": "A biodistribution experiment aimed at determining the lung uptake selectivity and stability of ^111In-ST2210 was conducted. […] Twenty four hours after, all mice received ^111In-ST2210 intravenously (i.e., 1 μg in 0.2 ml of saline), and after further 2 or 24 hours, the animals were sacrificed by CO2 asphyxia. The lung and non target organs were collected weighed and counted in a gamma counter."}, "[4]": {"test": "Immunohistochemistry of lung sections with anti-avidin antibody after aerosol exposure", "assay_type": "in vivo, Balb/c mice", "details": "24 hours after aerosol exposure", "description": "The lungs were removed and fixed in formalin and paraffin embedded. Serial sections obtained by means of a microtome were processed and incubated with a HRP-conjugated rabbit anti-avidin antibody (GeneTex, USA) and then with DAB substrate."}, "[5]": {"test": "PET imaging of i.v. 64Cu-ST2210 after nebulised oxidized avidin", "assay_type": "in vivo, Balb/c mice", "details": "64Cu-ST2210 1 μg i.v. 24 h after aerosol; PET 4 hours after", "description": "After 24 hours, they received an intravenous 1 μg dose of ^64Cu-ST2210. ^64Cu-ST2210 distribution was examined by PET imaging 4 hours after. […] Kidneys, bladder are visible in both groups of mice. This observation is consistent with the physiological elimination of ST2210 at that time point."}, "[6]": {"system": "A431 cells", "test": "Inhibition of proliferation, Cell Titer Glow assay", "assay_type": "cell-based, Human", "details": "oxidized avidin alone compared with medium only (data not shown)", "description": "Proliferation inhibition was measured by Cell Titer Glow assay, Promega."}, "[7]": {"test": "Uptake of i.v. 111In-ST2210 in lung and non target organs 24 h after inhalation exposure", "protocol": "Twenty Sprague Dawley rats were divided in three different groups.\nAll rats were sacrificed 2 hours after the i.v. administration of ^111In-ST2210, and samples of blood, spleen, kidney, liver, stomach, brain, trachea, and tissue samples of different portions of lung were collected, weighed and analyzed with the use of a gamma-counter (Perkin Elmer). Data were expressed as the % of injected dose/gram of tissue (% ID/g)."}},
  "data": [
    {"substance": "Oxidized avidin: chemically oxidized avidin according to example 1 of WO2009016031, about 8 to 15 aldehyde moieties", "values": [
      {"measurement": "binding to bladder tissue", "setting": "[1]; intact bladder tissue", "result": "completely inert"},
      {"measurement": "binding to bladder tissue", "setting": "[1]; region subjected to surgery", "result": "enabled the binding of oxidized avidin"},
      {"measurement": "HPLC elution profile pre and post nebulisation", "setting": "[2]", "result": "same elution profile"},
      {"measurement": "uptake of 111In-ST2210 in the lung", "setting": "[3]", "result": "specific and significant uptake"},
      {"measurement": "distribution of oxidized avidin in the lung", "setting": "[4]", "result": "homogenous in all lung compartments"},
      {"measurement": "localisation of oxidized avidin in lung sections", "setting": "[4]", "result": "presence of oxidized avidin at broncho/epithelial level down to terminal bronchioles"},
      {"measurement": "64Cu-ST2210 PET signal in the lungs", "setting": "[5]", "result": "presence of a radioactive signal in the lungs"},
      {"measurement": "effect on cell proliferation", "setting": "[6]", "result": "did not affect cell proliferation"},
      {"measurement": "111In-ST2210 % ID/g Blood", "setting": "[7]; Blood, 2 h after i.v. 111In-ST2210, 24 h after inhalation (about 10 mg/kg)", "result": "0.012 ± 0.004", "unit": "% ID/g"},
      {"measurement": "111In-ST2210 % ID/g Kidney", "setting": "[7]; Kidney, 2 h after i.v. 111In-ST2210, 24 h after inhalation", "result": "0.414 ± 0.033", "unit": "% ID/g"},
      {"measurement": "111In-ST2210 % ID/g Liver", "setting": "[7]; Liver, 2 h after i.v. 111In-ST2210, 24 h after inhalation", "result": "0.051 ± 0.005", "unit": "% ID/g"},
      {"measurement": "111In-ST2210 % ID/g Lung dx (caudal lobe)", "setting": "[7]; Lung dx (caudal lobe), 2 h after i.v. 111In-ST2210, 24 h after inhalation", "result": "0.055 ± 0.009", "unit": "% ID/g"},
      {"measurement": "111In-ST2210 % ID/g Lung dx (cranial, middle and accessory lobe)", "setting": "[7]; Lung dx (cranial, middle and accessory lobe), 2 h after i.v. 111In-ST2210, 24 h after inhalation", "result": "0.055 ± 0.011", "unit": "% ID/g"},
      {"measurement": "111In-ST2210 % ID/g Lung sn", "setting": "[7]; Lung sn, 2 h after i.v. 111In-ST2210, 24 h after inhalation", "result": "0.053 ± 0.008", "unit": "% ID/g"},
      {"measurement": "111In-ST2210 % ID/g Lung", "setting": "[7]; Lung, 2 h after i.v. 111In-ST2210, 24 h after inhalation", "result": "0.054 ± 0.009", "unit": "% ID/g"},
      {"measurement": "111In-ST2210 % ID/g Spleen", "setting": "[7]; Spleen, 2 h after i.v. 111In-ST2210, 24 h after inhalation", "result": "0.032 ± 0.002", "unit": "% ID/g"},
      {"measurement": "111In-ST2210 % ID/g Stomach", "setting": "[7]; Stomach, 2 h after i.v. 111In-ST2210, 24 h after inhalation", "result": "0.276 ± 0.246", "unit": "% ID/g"},
      {"measurement": "111In-ST2210 % ID/g Trachea", "setting": "[7]; Trachea, 2 h after i.v. 111In-ST2210, 24 h after inhalation", "result": "0.029 ± 0.007", "unit": "% ID/g"},
      {"measurement": "organ linkage of nebulised oxidized avidin", "setting": "[7]; lung versus trachea", "result": "bound to the lung but not to the trachea"}
    ]}
  ]
}
